Laboratory results taken from PMC6232587, “Human RNA cap1 methyltransferase CMTr1 cooperates with RNA helicase DHX15 to modify RNAs with highly structured 5′ termini” (Philosophical Transactions of the Royal Society B: …, 2018).

B1: CMTr1 full-length, purified from insect cells (enzyme, human, UniProt Q8N1G2 1-835, looked up)
chain: MKRRTDPECTAPIKKQKKRVAELALSLSSTSDDEPPSSVSHGAKASTTSLSGSDSETEGKQHSSDSFDDAFKADSLVEGTSSRYSMYNSVSQKLMAKMGFREGEGLGKYSQGRKDIVEASSQKGRRGLGLTLRGFDQELNVDWRDEPEPSACEQVSWFPECTTEIPDTQEMSDWMVVGKRKMIIEDETEFCGEELLHSVLQCKSVFDVLDGEEMRRARTRANPYEMIRGVFFLNRAAMKMANMDFVFDRMFTNPRDSYGKPLVKDREAELLYFADVCAGPGGFSEYVLWRKKWHAKGFGMTLKGPNDFKLEDFYSASSELFEPYYGEGGIDGDGDITRPENISAFRNFVLDNTDRKGVHFLMADGGFSVEGQENLQEILSKQLLLCQFLMALSIVRTGGHFICKTFDLFTPFSVGLVYLLYCCFERVCLFKPITSRPANSERYVVCKGLKVGIDDVRDYLFAVNIKLNQLRNTDSDVNLVVPLEVIKGDHEFTDYMIRSNESHCSLQIKALAKIHAFVQDTTLSEPRQAEIRKECLRLWGIPDQARVAPSSSDPKSKFFELIQGTEIDIFSYKPTLLTSKTLEKIRPVFDYRCMVSGSEQKFLIGLGKSQIYTWDGRQSDRWIKLDLKTELPRDTLLSVEIVHELKGEGKAQRKISAIHILDVLVLNGTDVREQHFNQRIQLAEKFVKAVSKPSRPDMNPIRVKEVYRLEEMEKIFVRLEMKIIKGSSGTPKLSYTGRDDRHFVPMGLYIVRTVNEPWTMGFSKSFKKKFFYNKKTKDSTFDLPADSIAPFHICYYGRLFWEWGDGIRVHDSQKPQDQDKLSKEDVLSFIQMHRA
B2: Recombinant DHX15 with His-tag (enzyme, human, UniProt O43143 1-795, looked up)
chain: MSKRHRLDLGEDYPSGKKRAGTDGKDRDRDRDREDRSKDRDRERDRGDREREREKEKEKELRASTNAMLISAGLPPLKASHSAHSTHSAHSTHSTHSAHSTHAGHAGHTSLPQCINPFTNLPHTPRYYDILKKRLQLPVWEYKDRFTDILVRHQSFVLVGETGSGKTTQIPQWCVEYMRSLPGPKRGVACTQPRRVAAMSVAQRVADEMDVMLGQEVGYSIRFEDCSSAKTILKYMTDGMLLREAMNDPLLERYGVIILDEAHERTLATDILMGVLKEVVRQRSDLKVIVMSATLDAGKFQIYFDNCPLLTIPGRTHPVEIFYTPEPERDYLEAAIRTVIQIHMCEEEEGDLLLFLTGQEEIDEACKRIKREVDDLGPEVGDIKIIPLYSTLPPQQQQRIFEPPPPKKQNGAIGRKVVVSTNIAETSLTIDGVVFVIDPGFAKQKVYNPRIRVESLLVTAISKASAQQRAGRAGRTRPGKCFRLYTEKAYKTEMQDNTYPEILRSNLGSVVLQLKKLGIDDLVHFDFMDPPAPETLMRALELLNYLAALNDDGDLTELGSMMAEFPLDPQLAKMVIASCDYNCSNEVLSITAMLSVPQCFVRPTEAKKAADEAKMRFAHIDGDHLTLLNVYHAFKQNHESVQWCYDNFINYRSLMSADNVRQQLSRIMDRFNLPRRSTDFTSRDYYINIRKALVTGYFMQVAHLERTGHYLTVKDNQVVQLHPSTVLDHKPEWVLYNEFVLTTKNYIRTCTDIKPEWLVKIAPQYYDMSNFPQCEAKRQLDRIIAKLQSKEYSQY
notes: ATP-dependent RNA helicase DHX15, human, from the full-length cDNA, cloned into pET28; The cloning paragraph says C-terminal His-tag; also called His-DHX15; DHX15 helicase; not shown: His-tag, C-terminal, kept

How the values were obtained:
[1] = target: B2; test: cell-based or functional assay
[2] = target: B1; test: pull-down; purified His-DHX15 and CMTr1 mixed in BDHX buffer (20 mM Tris-HCl pH 8, 70 mM KCl, 3 mM MgCl2, 5 mM DTT, 100 µM ATP), on ice for 10 min; complexes captured on nickel-charged agarose beads; details: both partners purified

CMTr1 methyltransferase activity towards RNA92 and RNA68 substrates with equimolar DHX15, in comparison with CMTr1 alone [1] [fold] | binding result [2] | Binder
> 3 | – | B1
– | binds | B2
